Results reported in patent US20140010817A1 (Daiichi Sankyo, published 2014).
Positions count from the first letter of the chain named.

B1: humanized antibody T14 (antibody, V domains shown)
VH: EVQLVESGGGLVQPGRSLRLSCAASGFTFSDYYMAWVRQAPGKGLEWVASISYEGSNTNFGDSVKGRFTISRDSSKNTLYLKMNSLRAEDTAVYYCARWAQTGYYFDYWGQGTLVTVSS
VL: DIQMTQSPSSLSASVGDRVTITCLASEDIYSNLAWYQQKPGKSPKLLIYYANSLNDGVPSRFSGSGSGTDFTLTISRLQPEDFATYYCQQNYDSPYTFGQGTKVEIKR
notes: also called humanized MAb1 (H5/L2)
B2: humanized antibody T11 (antibody, V domains shown)
VH: B1 VH with A24G
VL: B1 VL with R77S
notes: also called humanized MAb1 (H3/L5)
B3: humanized antibody T9 (antibody, V domains shown)
VH: B1 VH with A24G
VL: B1 VL
notes: also called humanized MAb1 (H3/L2)
B4: humanized antibody T1 (antibody, V domains shown)
VH: B1 VH with A49S, S74N
VL: B1 VL with S43A
notes: also called humanized MAb1 (H1/L1)
B5: humanized antibody T12 (antibody, V domains shown)
VH: B1 VH with A24G, S75A
VL: B1 VL with K45Q, Y87F, V104L
notes: also called humanized MAb1 (H4/L4)
B6: humanized antibody T10 (antibody, V domains shown)
VH: B1 VH with A24G
VL: B1 VL with K45Q, Y87F
notes: also called humanized MAb1 (H3/L3)
B7: humanized antibody T19 (antibody)
heavy: not shown
light: DIQMTQSPSSLSASVGDRVTITCLASEDIYSNLAWYQQKPGKAPKLLIYYANSLNDGVPSRFSGSGSGTDFTLTISRLQPEDFATYYCQQNYDSPYTFGQGTKVEIKRTVAAPSVFIFPPSDEQLKSGTASVVCLLNNFYPREAKVQWKVDNALQSGNSQESVTEQDSKDSTYSLSSTLTLSKADYEKHKVYACEVTHQGLSSPVTKSFNRGEC
notes: also called humanized MAb1 (H8/L1)
B8: humanized antibody T6 (antibody, V domains shown)
VH: B1 VH with S74N
VL: B1 VL with K45Q, Y87F
notes: also called humanized MAb1 (H2/L3)
B9: humanized antibody T4 (antibody, V domains shown)
VH: B1 VH with S74N
VL: B1 VL with S43A
notes: also called humanized MAb1 (H2/L1)
B10: humanized antibody T16 (antibody, V domains shown)
VH: B1 VH with A24G, S74N
VL: B1 VL
notes: also called humanized MAb1 (H6/L2)
B11: humanized antibody T15 (antibody, V domains shown)
VH: B1 VH
VL: B1 VL with R77S
notes: also called humanized MAb1 (H5/L5)
B12: humanized antibody T3 (antibody, V domains shown)
VH: B1 VH with A49S, S74N
VL: B1 VL with K45Q, Y87F
notes: also called humanized MAb1 (H1/L3)
B13: humanized antibody T2 (antibody, V domains shown)
VH: B1 VH with A49S, S74N
VL: B1 VL
notes: also called humanized MAb1 (H1/L2)
B14: humanized antibody T8 (antibody, V domains shown)
VH: B1 VH with A24G
VL: B1 VL with S43A
notes: also called humanized MAb1 (H3/L1)
B15: humanized antibody T18 (antibody, V domains shown)
VH: B1 VH with A24G, K82Q
VL: B1 VL
notes: also called humanized MAb1 (H7/L2)
B16: humanized antibody T21 (antibody)
heavy: not shown
light: B7 light
notes: also called humanized MAb1 (H10/L1)
B17: humanized antibody T17 (antibody, V domains shown)
VH: B1 VH with A24G, S74N
VL: B1 VL with R77S
notes: also called humanized MAb1 (H6/L5)
B18: Monoclonal Antibody 1 (MAb1) (antibody)
heavy: EVQLVESGGGLVQPGRSLKLSCVGSGFTFSDYYMAWVRQAPKKGLEWVASISYEGSNTNFGDSVKGRFTISRDSAKSTLYLQMNSLRSEDTATYYCARWAQTGYYFDYWGQGVMVTVSSAETTAPSVYPLAPGTALKSNSMVTLGCLVKGYFPEPVTVTWNSGALSSGVHTFPAVLQSGLYTLTSSVTVPSSTWSSQAVTCNVAHPASSTKVDKKIVPRECNPCGCTGSEVSSVFIFPPKTKDVLTITLTPKVTCVVVDISQNDPEVRFSWFIDDVEVHTAQTHAPEKQSNSTLRSVSELPIVHRDWLNGKTFKCKVNSGAFPAPIEKSISKPEGTPRGPQVYTMAPPKEEMTQSQVSITCMVKGFYPPDIYTEWKMNGQPQENYKNTPPTMDTDGSYFLYSKLNVKKETWQQGNTFTCSVLHEGLHNHHTEKSLSHSPGK
light: DIQMTQSPASLSASLGETVTIECLASEDIYSNLAWYQQKPGKSPQLLIYYANSLNDGVPSRFSGSGSGTQFSLKINSLQSEDVSIYFCQQNYDSPYTFGAGAKLELKRADAAPTVSIFPPSTKQLATGGASVVCLMNNFYPRDISVKWKIDGTERRDGVLDSVTDQDSKDSTYSMSSTLSLTKADYESHNLYTCEVVHKTSSSPVVKSFNRNEC
notes: also called rat antibody MAb1; recombinant MAb1
B19: Monoclonal Antibody 2 (MAb2) (antibody, V domains shown)
VH: EVKLQESGPELKKPGETVKISCKASGYTFRDYPIHWVKQAPGKGLKWMGWINTETGEPTYADDFKGRFAFSLETSANTTYLQINNLKNEDTATYFCTPRFTYWGQGTLVTVSS
VL: DIVMTQTPSSLAVSVGEKVTMSCKSSQNLLYSGNQKNYLAWFQQKPGQSPKLLIYWASTRESGVPDRFTGSGSGTDFTLTLSSVKAEDLAVYYCQQSYRYPYTSGGGTKLEIKR
B20: Monoclonal Antibody 3 (MAb3) (antibody, V domains shown)
VH: QVKLEESGGGLVKPGGSLKLSCAASGFSFSRNVMSWVRQTPEKRLEWVATISAGGSYTYYPDSVKGRFTISRDNAKNTLYLQMSSLRSEDTAMYYCARLNYNDNGNYFDYWGQGTTLTVSS
VL: DIVMTQSTAIMSASLGEKVTMSCRASSSVVYMYWYQQKSDASPKLWIYYTSNLAPGVPARFSGSGSGNSYSLTISSMEGEDAATYYCQQFTSSPYTFGGGTKLEIKR
B21: chimerized MAb1 (rat-human chimeric antibody) (antibody, V domains shown)
VH: EVQLVESGGGLVQPGRSLKLSCVGSGFTFSDYYMAWVRQAPKKGLEWVASISYEGSNTNFGDSVKGRFTISRDSAKSTLYLQMNSLRSEDTATYYCARWAQTGYYFDYWGQGVMVTVSS
VL: DIQMTQSPASLSASLGETVTIECLASEDIYSNLAWYQQKPGKSPQLLIYYANSLNDGVPSRFSGSGSGTQFSLKINSLQSEDVSIYFCQQNYDSPYTFGAGAKLELKRA
B22: Monoclonal Antibody 4 (MAb4) (antibody, V domains shown)
VH: QVKLEESGAELVKPGASVKMSCKASGYTFTIYNIHWVKQTPRQGLEWIGTIFPVNGDTSYNQRFKGKATLTADKSSNTAYMQLSGLTSEDSALYYCARSTTARAWFPYWGQGTLVTVSA
VL: HIVITQTQKFMSTSVGDRVSVTCKASQNVGSNVAWYQQKPGQSPKVLIYSASYRYSGVPDRFTGSGSGTDFTLTISNVQSEDLADFFCQQYNTSPFTFGGGTKLEIK

These binders were tested against T1, RX protein purified from the culture supernatant of ADSF cells (murine mammary tumor virus (MMTV) …, UniProt P03374 99-474; P03374 475-651) (assay: SPR (ProteOn XPR36), humanized MAb1 captured on immobilised Protein A/G, RX protein as analyte).
T1 construct: also called purified RX protein; ADSF cell-derived RX protein
Method: Specifically, a Protein A-Protein G fusion protein Protein A/G (Thermo Fisher Scientific K.K.) was immobilized on the GLM sensor chip of ProteOn XPR36 (Bio-Rad Laboratories, Inc.) by the amine coupling method. […] The dissociation constant, i.e., binding affinity, was calculated from the ratio therebetween.

Which Kd does the source give for B1 here?
Its Kd is 0.19 nM.

For B2, which Kd is on record?
The Kd was 0.37 nM.

For B3, which Kd is on record?
The Kd was 0.25 nM.

With B4 as the binder, how does the Kd read?
Its Kd is 2.5 nM.

How did the Kd turn out when B5 was run?
Its Kd is 0.32 nM.

With B6 as the binder, how does the Kd read?
The Kd was 0.47 nM.

How did the Kd turn out when B7 was run?
Its Kd is 0.69 nM.

Which Kd does the source give for B8 here?
Its Kd is 2 nM.

With B9 as the binder, how does the Kd read?
Its Kd is 2 nM.

How did the Kd turn out when B10 was run?
The Kd was 1.9 nM.

B11 was tested. Which Kd did it give?
Its Kd is 0.26 nM.

With B12 as the binder, how does the Kd read?
The Kd was 2.5 nM.

With B13 as the binder, how does the Kd read?
The Kd was 1.9 nM.

How did the Kd turn out when B14 was run?
Its Kd is 0.17 nM.

For B15, which Kd is on record?
Its Kd is 0.22 nM.

For B16, which Kd is on record?
Its Kd is 0.42 nM.

Which Kd does the source give for B17 here?
Its Kd is 2 nM.

The binders below were run against T1, RX protein purified from the culture … (assay: SPR (ProteOn XPR36), antibody immobilised by amine coupling on a GLM chip, purified RX protein as analyte).
From the text: (§1) Each antibody was immobilized on a sensor chip (Sensor Chip GLM; Bio-Rad Laboratories, Inc.) by the amine coupling method. The chip was blocked by the addition of 1 M ethanolamine hydrochloride (pH 8.5). ProteOn PBS/Tween, pH 7.4 (PBS, pH 7.4, 0.005% Tween 20) was used as a running buffer solution. The purified RX protein was serially diluted and interacted as an analyte with the immobilized monoclonal antibody to determine the binding affinity. The association rate constant ka and the dissociation rate constant kd were calculated by kinetics analysis using ProteOn Manager™.

Which Kd does the source give for B18 here?
Its Kd is 0.16 nM.

With B19 as the binder, how does the Kd read?
The Kd was 0.26 nM.

What about the koff of the same binder?
Its koff is 0.00021 s⁻¹.

And the kon?
Its kon is 810000 M⁻¹ s⁻¹.

What does the source list for B20?
Kd: 0.62 nM; koff: 0.0017 s⁻¹; kon: 2.8e+06 M⁻¹ s⁻¹

These binders were tested against T1, RX protein purified from the culture … (assay: SPR).

How did the Kd turn out when B21 was run?
The Kd was 0.22 nM.

Each binder was assayed against T1, RX protein purified from the culture … (assay: SPR (ProteOn XPR36) by the method of Example 4: antibody immobilized, RX protein as analyte).
From the text: as §1

How did the Kd turn out when B22 was run?
Its Kd is 0.14 nM.

These binders were tested against T1, RX protein purified from the culture … (assay: SPR (ProteOn XPR36), antibody immobilized by amine coupling, RX protein as analyte).
From the text: as §1

B18 was tested. Which Kd did it give?
The Kd was roughly 0.1 nM.

For B19, which Kd is on record?
Its Kd is roughly 0.1 nM.

How did the Kd turn out when B20 was run?
Its Kd is roughly 0.1 nM.
